Laboratory results: US20110002926A1 (MEDICAL RESEARCH COUNCIL, published 2011)

How the values were obtained:
[1] = molecular target: T1, soluble HCV E2 (sE2661), HIS-tagged, baculovirus expressed (Hepatitis C virus (genotype )); assay: BIAcore SPR, antibody captured on anti-human Fc chip, sE2 1.56-50 nM injected, 1:1 Langmuir fit
T1 construct: extracellular domain; also called soluble E2

[2] = molecular target: HCV E1E2 glycoproteins of genotype 1b (Con1) (Hepatitis C virus genotype 1b (Con1), UniProt Q9WMX2 384-746; Q9WMX2 192-383); assay: cell-based or functional assay
Sequence of HCV E1E2 glycoproteins of genotype 1b (Con1) (Q9WMX2 384-746 limits assumed, chain 1 of 2): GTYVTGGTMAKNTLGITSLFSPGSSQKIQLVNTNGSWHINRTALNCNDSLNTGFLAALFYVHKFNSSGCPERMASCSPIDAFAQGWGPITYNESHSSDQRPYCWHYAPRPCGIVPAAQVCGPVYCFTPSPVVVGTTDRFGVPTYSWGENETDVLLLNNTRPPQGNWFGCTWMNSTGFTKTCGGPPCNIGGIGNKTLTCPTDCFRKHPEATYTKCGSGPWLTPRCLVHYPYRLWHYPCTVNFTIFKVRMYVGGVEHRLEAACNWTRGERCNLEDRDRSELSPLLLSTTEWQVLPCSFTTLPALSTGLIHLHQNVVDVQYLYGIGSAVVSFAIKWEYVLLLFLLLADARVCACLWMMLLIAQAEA
Sequence of HCV E1E2 glycoproteins of genotype 1b (Con1) (Q9WMX2 192-383 limits assumed, chain 2 of 2): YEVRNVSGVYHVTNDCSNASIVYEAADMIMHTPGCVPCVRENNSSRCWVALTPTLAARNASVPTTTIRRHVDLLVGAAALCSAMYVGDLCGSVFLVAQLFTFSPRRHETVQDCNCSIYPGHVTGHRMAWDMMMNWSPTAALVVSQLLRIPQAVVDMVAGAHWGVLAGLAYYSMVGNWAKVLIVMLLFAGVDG

[3] = molecular target: HCV E1E2 glycoproteins of genotype 2a (J6) (Hepatitis C virus genotype 2a (J6), UniProt P26660 384-750; P26660 192-383); assay: cell-based or functional assay
[4] = molecular target: T2, HCV E2 as part of the E1E2 heterodimer expressed on the surface of 293T cells (Hepatitis C virus (genotype )); assay: Scatchard analysis, 125I-antibody competition with unlabeled antibody on E1E2-transfected 293T cells
T2 construct: whole, on cells; also called E1E2 Scatchard; cell surface expressed E2

[5] = molecular target: HCV E1E2 glycoproteins of isolate 2A2.4 on HCVpp (Hepatitis C virus genotype 2); assay: cell-based or functional assay
[6] = molecular target: HCV E1E2 glycoproteins of isolate 5.15.11 on HCVpp (Hepatitis C virus genotype 5); assay: cell-based or functional assay
[7] = molecular target: HCV E1E2 glycoproteins of isolate 4.21.16 on HCVpp (Hepatitis C virus genotype 4); assay: cell-based or functional assay
[8] = molecular target: HCV E1E2 glycoproteins of genotype 3a F4/2-35 on HCVpp (Hepatitis C virus genotype 3a); assay: cell-based or functional assay
[9] = molecular target: HCV E1E2 glycoproteins of isolate 1A20.8 on HCVpp (Hepatitis C virus genotype 1); assay: cell-based or functional assay
[10] = molecular target: HCV E1E2 glycoproteins of genotype 2a JFH1 on HCVpp (Hepatitis C virus genotype 2a, UniProt Q99IB8 384-750; Q99IB8 192-383); assay: cell-based or functional assay
Sequence of HCV E1E2 glycoproteins of genotype 2a JFH1 on HCVpp (Q99IB8 384-750 limits assumed, chain 1 of 2): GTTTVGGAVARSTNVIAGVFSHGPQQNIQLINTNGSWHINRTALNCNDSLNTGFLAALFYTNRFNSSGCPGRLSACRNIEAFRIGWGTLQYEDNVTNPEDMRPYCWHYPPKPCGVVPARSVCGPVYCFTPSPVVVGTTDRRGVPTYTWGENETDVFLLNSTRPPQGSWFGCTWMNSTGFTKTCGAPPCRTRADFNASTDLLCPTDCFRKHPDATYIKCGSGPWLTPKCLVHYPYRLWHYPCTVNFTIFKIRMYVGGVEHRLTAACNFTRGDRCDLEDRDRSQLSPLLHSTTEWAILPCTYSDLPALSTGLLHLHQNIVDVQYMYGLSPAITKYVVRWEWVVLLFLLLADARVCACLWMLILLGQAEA
Sequence of HCV E1E2 glycoproteins of genotype 2a JFH1 on HCVpp (Q99IB8 192-383 limits assumed, chain 2 of 2): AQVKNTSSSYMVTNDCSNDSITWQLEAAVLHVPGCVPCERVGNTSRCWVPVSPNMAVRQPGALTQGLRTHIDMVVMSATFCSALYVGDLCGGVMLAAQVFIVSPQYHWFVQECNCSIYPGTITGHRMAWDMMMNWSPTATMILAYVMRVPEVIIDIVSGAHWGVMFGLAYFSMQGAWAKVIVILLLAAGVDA

[11] = molecular target: HCV E1E2 glycoproteins of isolate 1B5.23 on HCVpp (Hepatitis C virus genotype 1); assay: cell-based or functional assay
[12] = molecular target: HCV E1E2 glycoproteins of isolate 6.5.8 on HCVpp (Hepatitis C virus genotype 6); assay: cell-based or functional assay
[13] = molecular target: HCV E1E2 glycoproteins of isolate 2B1.1 on HCVpp (Hepatitis C virus genotype 2); assay: cell-based or functional assay

B1: humanized AP33 antibody RH-C/RK2b (antibody, V domains shown)
VH: QVQLQESGPGLVKPSETLSLTCTVSGDSITSGYWNWIRQPPGRALEWMGYISYSGSTYYNLSLRSRITISRDTSKNQYSLRLSSVTAADTAMYYCALITTTTYAMDYWGQGTTVTVSS
VL: EIVLTQSPSSLSASVGDRVTITCRASESVDGYGNSFLHWFQQKPGKAPKLLIYLASNLNSGVPSRFSGSGSGTDFTLTISSLQPEDFATYYCQQNNVDPWTFGQGTKLEIK
notes: also called RH-C antibody
Kd [1]: 3.8 nM | EC50 of HCVpp entry into Huh-7.5 cells (luciferase) [2]: 0.511 µg/mL | EC50 of HCVpp entry into Huh-7.5 cells (luciferase) [3]: 0.793 µg/mL | neutralization of HCVcc infection of Huh-7.5 cells (RT-qPCR), fold against AP33 [3]: ≥ 4.7 fold | Kd [4]: 5 nM | IC50 of HCVpp infection of Huh-7 cells (luciferase) [5]: 0.51 µg/mL | IC90 of HCVpp infection of Huh-7 cells (luciferase) [5]: 6 µg/mL | IC50 of HCVpp infection of Huh-7 cells (luciferase) [6]: 0.053 µg/mL | IC90 of HCVpp infection of Huh-7 cells (luciferase) [6]: 0.82 µg/mL | IC50 of HCVpp infection of Huh-7 cells (luciferase) [7]: < 0.41 µg/mL | IC90 of HCVpp infection of Huh-7 cells (luciferase) [7]: 0.92 µg/mL | IC50 of HCVpp infection of Huh-7 cells (luciferase) [8]: < 0.41 µg/mL | IC90 of HCVpp infection of Huh-7 cells (luciferase) [8]: 2.15 µg/mL | IC50 of HCVpp infection of Huh-7 cells (luciferase) [9]: 1.6 µg/mL | IC90 of HCVpp infection of Huh-7 cells (luciferase) [9]: 15 µg/mL | IC50 of HCVpp infection of Huh-7 cells (luciferase) [10]: 0.64 µg/mL | IC90 of HCVpp infection of Huh-7 cells (luciferase) [10]: 7 µg/mL | IC50 of HCVpp infection of Huh-7 cells (luciferase) [11]: 0.9 µg/mL | IC90 of HCVpp infection of Huh-7 cells (luciferase) [11]: 8.3 µg/mL | IC50 of HCVpp infection of Huh-7 cells (luciferase) [12]: < 0.41 µg/mL | IC90 of HCVpp infection of Huh-7 cells (luciferase) [12]: 1.8 µg/mL | IC50 of HCVpp infection of Huh-7 cells (luciferase) [13]: 3 µg/mL | IC90 of HCVpp infection of Huh-7 cells (luciferase) [13]: > 15 µg/mL
